The values below come from paper PMC8945002, “Pseudomonas aeruginosa Bacterioferritin Is Assembled from FtnA and BfrB Subunits with the Relative Proportions Dependent on the Environmental Oxygen Availability” (Biomolecules, 2022).

As usually defined, the stoichiometry N is the number of molecules, sites or subunits per partner or assembly. The term Kd denotes the concentration at which binding is half-saturated. Low readings indicate tighter binding, high ones weaker binding.

B1: FtnA subunit of P. aeruginosa (endogenous) (natural protein, P. aeruginosa PAO1 (endogenous), UniProt Q9HWF9 1-154, looked up)
chain: MQGHPEVIDYLNTLLTGELAARDQYFIHSRMYEDWGFSKLYERLNHEMEEETQHADALLRRILLLEGTPRMRPDDIHPGTTVPEMLEADLKLERHVRAALAKGIALCEQHKDFVSRDILKAQLADTEEDHAYWLEQQLGLIARMGLENYLQSQI
notes: FtnA, bacterial ferritin subunit of P. aeruginosa PAO1, gene PA4235 (formerly annotated bfrA); subunit mass 17,940 Da by LC-MS; Found in PAO1 only as a subunit of heterooligomeric Bfr; as 24-mer FtnA only in lysates of ΔbfrB cells cultured in 2% O2 or anaerobically; also called bacterial ferritin; formerly BfrA; source: purified from P. aeruginosa PAO1 as part of Bfr (Q Sepharose, hydroxyapatite, …)
B2: bacterioferritin-associated ferredoxin (Bfd) (natural protein, P. aeruginosa, UniProt Q9HY80 1-73, looked up)
chain: MYVCLCQGVTDNQIRDAIYEGCCSYREVREATGVGTQCGKCACLAKQVVRETLNDLQSAQPVPAFGTTAFVAA
notes: Bfd, the bacterioferritin-associated [2Fe-2S] ferredoxin of P. aeruginosa, product of the bfd gene next to bfrB; Holds a [2Fe-2S] cluster
B3: Bfr containing only BfrB subunits (24-mer BfrB) isolated from P. aeruginosa (natural protein)
chain: not shown
notes: BfrB, bacterioferritin subunit of P. aeruginosa PAO1, gene PA3531; subunit mass 18,552 Da by LC-MS; 24 copies hold for the homooligomer (SPR target, self rows); in the rows with m3 it stands for the BfrB subunits of the heterooligomeric 24-mer Bfr; also called homooligomeric BfrB; Bfr (0% FtnA, 21% O2); source: purified from P. aeruginosa PAO1 or ΔftnA cells (Q Sepharose, hydroxyapatite, Superdex …)

Data set [1] deals with the molecule itself. The data set is described as follows: native gel or EMSA; lysates of PAO1, ΔftnA and ΔbfrB cells (21%, 10%, 2% O2 or anaerobic) on native PAGE, stained for iron with Ferene S; BfrBrec and FtnArec as mobility standards; bands excised, digested with trypsin and identified by LC-MS.
Data set [2] concerns the target B3. The data set is described as follows: SPR; Biacore X100, 25 °C; Bfr or FtnArec immobilised on CM5 chips by amine coupling (100 nM in 10 mM sodium acetate pH 5.0); Bfd 0-40 μM flowed at 5 µL/min in PBS pH 7.4 with 1 mM TCEP; steady-state analysis, steric factor n set to 0.91. As to conditions: both partners purified.
For data set [3], the target named is T1, heterooligomeric 24-mer Bfr containing ~45% FtnA, isolated from PAO1 cells cultured in 2% O2 (P. aeruginosa PAO1 (endogenous), UniProt Q9HY79 1-158; Q9HWF9 1-154).
T1 construct: BfrB subunit of P. aeruginosa PAO1, gene PA3531; 18,552 Da; ~55% of the 24 subunits; FtnA subunit of P. aeruginosa PAO1, gene PA4235; 17,940 Da; ~45% of the 24 subunits; 24 subunits in all; a population of molecules of varying composition, on average ~45% FtnA; heme in the BfrB dimers; also called heterooligomeric Bfr; Bfr 45 (2% O2); source: purified from P. aeruginosa PAO1 cultured in 2% O2 (Q …)
T1 sequence (Q9HY79 whole entry, chain 1 of 2, one chain of several): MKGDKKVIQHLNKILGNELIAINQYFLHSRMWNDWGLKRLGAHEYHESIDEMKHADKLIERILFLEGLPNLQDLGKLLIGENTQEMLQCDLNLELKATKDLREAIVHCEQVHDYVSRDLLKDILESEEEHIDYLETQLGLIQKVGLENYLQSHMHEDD
The data set is described as above. As to conditions: both partners purified.

Data set [4] concerns the molecule itself. The data set is described as follows: SEC; Superdex 200 Increase 10/300 GL, 100 mM phosphate buffer pH 7.6, 1 mM TCEP; pure Bfr from P. aeruginosa; elution volume compared with a ferritin standard. (In general: In gel filtration, larger molecules generally elute earlier.)

For the molecule B1, the “stoichiometry N” value in data set [1] was determined as 24. Turning to B2, the dissociation constant (Kd) is 4.7 ± 0.8 µM in data set [2] and 4.3 ± 0.5 µM in data set [3]. In the case of B3, in data set [4], the “stoichiometry N” value was 24.
